Measurements taken from article PMC5493754, “Myosin 7 and its adaptors link cadherins to actin” (Nature Communications, 2017).

Columns and labels:
Assay in all cases: MST; YFP-fused partner held together with a third protein (saturating concentrations; competition experiments), non-fluorescent protein titrated
Conditions in all cases: both partners purified
[1] = biological target: T1, YFP-ANKS4B_(CEN-PBM) with harmonin NPDZ1.PDZ2 (human, UniProt Q8N8V4 259-417; Q9Y6N9-1 1-301)
T1 construct: ANKS4B, human, residues 259-417 of UniProt Q8N8V4; as m42; Harmonin-a1 (USH1C), human, residues 1-301 of UniProt Q9Y6N9-1; as m30; also called ^YFPANKS4b+NPDZ1.PDZ2; source: purified E. coli proteins mixed; not shown: YFP, N-terminal, kept
T1 sequence (looked up) 1: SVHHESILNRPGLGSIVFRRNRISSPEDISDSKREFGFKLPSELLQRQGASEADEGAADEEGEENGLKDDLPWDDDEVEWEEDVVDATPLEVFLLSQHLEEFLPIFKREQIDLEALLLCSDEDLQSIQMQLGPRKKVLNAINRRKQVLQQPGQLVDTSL
T1 sequence (looked up) 2: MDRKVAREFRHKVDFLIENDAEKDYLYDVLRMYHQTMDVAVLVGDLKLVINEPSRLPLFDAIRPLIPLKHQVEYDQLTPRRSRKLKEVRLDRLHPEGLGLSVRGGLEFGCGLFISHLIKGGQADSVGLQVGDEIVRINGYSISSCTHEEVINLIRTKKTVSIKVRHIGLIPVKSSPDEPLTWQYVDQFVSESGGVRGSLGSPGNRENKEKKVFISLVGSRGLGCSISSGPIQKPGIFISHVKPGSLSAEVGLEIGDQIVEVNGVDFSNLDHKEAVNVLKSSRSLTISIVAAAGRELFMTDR

[2] = biological target: T2, ANKS4B_(CEN-PBM) with YFP-harmonin NPDZ1.PDZ2 (human, UniProt Q8N8V4 259-417; Q9Y6N9-1 1-301)
T2 construct: ANKS4B, human, residues 259-417 of UniProt Q8N8V4; as m43; Harmonin-a1 (USH1C), human, residues 1-301 of UniProt Q9Y6N9-1; as m31; also called ANKS4b+^YFPNPDZ1.PDZ2; ^YFPNPDZ1.PDZ2+ANKS4B_(CEN-PBM); source: purified E. coli proteins mixed
T2 sequence (looked up) 1: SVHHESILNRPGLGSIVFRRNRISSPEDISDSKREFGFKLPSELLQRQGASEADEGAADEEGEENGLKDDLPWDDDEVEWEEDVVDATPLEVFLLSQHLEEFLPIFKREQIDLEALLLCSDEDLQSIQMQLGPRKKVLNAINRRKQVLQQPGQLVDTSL
T2 sequence (looked up) 2: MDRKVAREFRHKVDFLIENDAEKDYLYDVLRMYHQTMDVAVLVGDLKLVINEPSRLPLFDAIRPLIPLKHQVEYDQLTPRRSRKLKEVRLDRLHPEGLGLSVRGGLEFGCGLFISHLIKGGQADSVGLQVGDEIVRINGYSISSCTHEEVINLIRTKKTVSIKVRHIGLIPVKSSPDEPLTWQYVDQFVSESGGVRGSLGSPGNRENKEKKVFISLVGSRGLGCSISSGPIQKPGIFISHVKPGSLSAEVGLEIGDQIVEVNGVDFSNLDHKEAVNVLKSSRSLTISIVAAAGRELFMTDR

[3] = biological target: T3, YFP-SANS_(CEN-PBM) saturated with harmonin NPDZ1.PDZ2 ( | human, UniProt Q495M9 300-461; Q9Y6N9-1 1-301)
T3 construct: SANS (USH1G), residues 300-461 of UniProt Q495M9; as m40; Harmonin-a1 (USH1C), human, residues 1-301 of UniProt Q9Y6N9-1; as m30; also called ^YFPSANS_(CEN-PBM)+NPDZ1.PDZ2; source: purified E. coli proteins mixed (saturating NPDZ1.PDZ2); not shown: YFP, N-terminal, kept
T3 sequence (looked up) 1: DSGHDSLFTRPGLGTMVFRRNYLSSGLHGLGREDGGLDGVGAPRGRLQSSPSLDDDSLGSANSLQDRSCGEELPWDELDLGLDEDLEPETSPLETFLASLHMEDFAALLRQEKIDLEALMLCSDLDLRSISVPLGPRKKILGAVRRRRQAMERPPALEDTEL
T3 sequence (looked up) 2: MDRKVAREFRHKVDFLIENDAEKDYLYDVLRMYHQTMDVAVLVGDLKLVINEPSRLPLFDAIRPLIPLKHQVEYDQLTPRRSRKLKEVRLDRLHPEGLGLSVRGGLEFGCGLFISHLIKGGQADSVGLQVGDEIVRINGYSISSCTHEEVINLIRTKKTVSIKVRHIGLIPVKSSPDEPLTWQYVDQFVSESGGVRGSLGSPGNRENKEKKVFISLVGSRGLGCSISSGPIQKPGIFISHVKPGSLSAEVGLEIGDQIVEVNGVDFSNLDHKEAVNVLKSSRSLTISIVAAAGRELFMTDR

[4] = biological target: T4, SANS_(CEN-PBM) with YFP-harmonin NPDZ1.PDZ2 ( | human, UniProt Q495M9 300-461; Q9Y6N9-1 1-301)
T4 construct: SANS (USH1G), residues 300-461 of UniProt Q495M9; as m41; Harmonin-a1 (USH1C), human, residues 1-301 of UniProt Q9Y6N9-1; as m31; also called SANS_(CEN-PBM)+^YFPNPDZ1.PDZ2; source: purified E. coli proteins mixed
T4 sequence (looked up) 1: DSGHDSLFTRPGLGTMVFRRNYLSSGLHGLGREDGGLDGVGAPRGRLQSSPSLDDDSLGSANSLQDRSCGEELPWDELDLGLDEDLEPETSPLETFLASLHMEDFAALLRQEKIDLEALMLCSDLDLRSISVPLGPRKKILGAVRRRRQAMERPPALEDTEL
T4 sequence (looked up) 2: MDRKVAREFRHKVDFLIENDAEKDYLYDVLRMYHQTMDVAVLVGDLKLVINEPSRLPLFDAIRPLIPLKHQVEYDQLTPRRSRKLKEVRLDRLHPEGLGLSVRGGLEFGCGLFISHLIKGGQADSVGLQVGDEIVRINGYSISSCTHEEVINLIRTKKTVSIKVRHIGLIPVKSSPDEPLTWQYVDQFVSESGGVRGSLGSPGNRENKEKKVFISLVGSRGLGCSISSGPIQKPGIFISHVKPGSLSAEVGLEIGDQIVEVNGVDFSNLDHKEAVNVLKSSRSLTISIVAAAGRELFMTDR

[5] = biological target: T5, SANS_(CEN-PBM) with YFP-FL-harmonin-ΔCter ( | human, UniProt Q495M9 300-461; Q9Y6N9-1 1-542)
T5 construct: SANS (USH1G), residues 300-461 of UniProt Q495M9; as m41; Harmonin-a1 (USH1C), human, residues 1-542 of UniProt Q9Y6N9-1; as m28; also called SANS_(CEN-PBM)+^YFPFL ΔCter; source: purified E. coli proteins mixed
T5 sequence (looked up) 1: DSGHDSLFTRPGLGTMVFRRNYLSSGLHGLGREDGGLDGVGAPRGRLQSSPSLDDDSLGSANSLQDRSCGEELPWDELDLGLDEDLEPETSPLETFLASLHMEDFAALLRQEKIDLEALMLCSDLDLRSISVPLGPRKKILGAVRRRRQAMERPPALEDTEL
T5 sequence (looked up) 2: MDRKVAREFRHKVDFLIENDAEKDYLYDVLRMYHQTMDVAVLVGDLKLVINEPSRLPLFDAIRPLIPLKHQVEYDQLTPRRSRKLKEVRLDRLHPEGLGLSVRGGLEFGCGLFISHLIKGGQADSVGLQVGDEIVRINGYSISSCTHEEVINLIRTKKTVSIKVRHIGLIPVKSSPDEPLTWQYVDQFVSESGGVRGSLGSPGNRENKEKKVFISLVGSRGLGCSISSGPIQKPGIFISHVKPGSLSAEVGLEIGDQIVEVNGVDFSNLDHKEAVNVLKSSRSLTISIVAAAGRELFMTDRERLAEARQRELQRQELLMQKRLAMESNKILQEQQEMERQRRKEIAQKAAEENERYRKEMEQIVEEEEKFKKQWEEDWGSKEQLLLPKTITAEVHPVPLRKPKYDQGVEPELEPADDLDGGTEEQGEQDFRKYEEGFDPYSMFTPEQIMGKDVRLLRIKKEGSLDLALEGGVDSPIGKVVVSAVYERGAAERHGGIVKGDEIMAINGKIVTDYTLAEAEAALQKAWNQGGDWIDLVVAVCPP

- Kd [1]: > 100 µM
- Kd [2]: > 100 µM
- Kd [3]: > 100 µM
- Kd [4]: > 100 µM
- Kd [5]: > 100 µM
B1: Harmonin-a PDZ3c (non-fluorescent, as used in MST) (domain or fragment, human, UniProt Q9Y6N9-1 428-552, looked up)
chain: QDFRKYEEGFDPYSMFTPEQIMGKDVRLLRIKKEGSLDLALEGGVDSPIGKVVVSAVYERGAAERHGGIVKGDEIMAINGKIVTDYTLAEAEAALQKAWNQGGDWIDLVVAVCPPKEYDDELTFF
notes: Harmonin-a1 (USH1C), human, PDZ3 plus C-terminal peptide, residues 428-552 of UniProt Q9Y6N9-1; The methods say only that samples for ITC or crystallisation were digested with TEV protease; also called PDZ3c (isoA); source: E. coli BL21 (DE3) Rosetta, purified (Glutathione Sepharose 4B, size-exclusion chromatography)
